According to patent publication US20240182536A1 (MURAL ONCOLOGY, published 2024):
Positions count from the first letter of the chain named. Names may count otherwise.

B1: IL-18 variant G3D, E6G, K53G, D54A, T63S, N91Y, R104Q (ligand)
chain: YFDKLGSKLSVIRNLNDQVLFIDQGNRPLFEDMTDSDMRDNAPRTIFIISMYGASQPRGMAVSISVKSEKISTLSSENKIISFKEMNPPDYIKDTKSDIIFFQQSVPGHDNKMQFESSSYEGYFLASEKERDLFKLILKKEDELGDRSIMFTVQNED
B2: IL-18 variant G3P, E6K, D54Y, S55P, T63S, N91S, R104Q (ligand)
chain: B1 chain with D3P, G6K, G53K, A54Y, S55P, Y91S
B3: IL-18 variant G3P, E6K, D54Y, S55P, T63S, N91S, R104Q, Q154R (ligand)
chain: B1 chain with D3P, G6K, G53K, A54Y, S55P, Y91S, Q154R
B4: IL-18 variant G3L, E6Y, D54T, T63S, N91Y, R104Q (ligand)
chain: B1 chain with D3L, G6Y, G53K, A54T
B5: IL-18 variant G3P, E6K, D54R, S55P, T63A, N91V (ligand)
chain: B1 chain with D3P, G6K, G53K, A54R, S55P, S63A, Y91V, Q104R
B6: IL-18 variant G3P, E6V, K53A, D54W, S55P, T63S, N91L, R104K (ligand)
chain: B1 chain with D3P, G6V, G53A, A54W, S55P, Y91L, Q104K
B7: IL-18 variant G3P, E6H, N91L (ligand)
chain: B1 chain with D3P, G6H, G53K, A54D, S63T, Y91L, Q104R
B8: IL-18 variant G3P, E6H, D54A, S55P, Q56K, T63S, N91M (ligand)
chain: B1 chain with D3P, G6H, G53K, S55P, Q56K, Y91M, Q104R
B9: IL-18 variant G3P, E6K, D54Y, S55P, Q56H, T63S, N91S, R104Q (ligand)
chain: B1 chain with D3P, G6K, G53K, A54Y, S55P, Q56H, Y91S
B10: IL-18 variant G3Q, E6H, K53T, D54S, S55Y, N91Y, R104K (ligand)
chain: B1 chain with D3Q, G6H, G53T, A54S, S55Y, S63T, Q104K
B11: IL-18 variant G3L, E6S, D54T, T63S, N91Y, R104Q (ligand)
chain: B1 chain with D3L, G6S, G53K, A54T
B12: IL-18 variant G3Q, E6Q, K53T, D54W, S55F, N91Y (ligand)
chain: B1 chain with D3Q, G6Q, G53T, A54W, S55F, S63T, Q104R
B13: IL-18 variant G3Q, E6N, D54Y, S55P, T63S, N91S, R104H (ligand)
chain: B1 chain with D3Q, G6N, G53K, A54Y, S55P, Y91S, Q104H
B14: IL-18 variant E6D, D54T, S55W, T63S, N91S, R104T (ligand)
chain: B1 chain with D3G, G6D, G53K, A54T, S55W, Y91S, Q104T
B15: IL-18 variant G3L, E6Q, D54Y, S55P, T63S, N91S, R104Q (ligand)
chain: B1 chain with D3L, G6Q, G53K, A54Y, S55P, Y91S
B16: IL-18 variant G3Q, E6H, D54N, S55I, T63S, N91V (ligand)
chain: B1 chain with D3Q, G6H, G53K, A54N, S55I, Y91V, Q104R
B17: IL-18 variant G3Q, E6N (ligand)
chain: B1 chain with D3Q, G6N, G53K, A54D, S63T, Y91N, Q104R
B18: IL-18 variant G3D, E6Q, R27S, K53R, D54A, S55R, T63S, N91Q (ligand)
chain: B1 chain with G6Q, R27S, G53R, S55R, Y91Q, Q104R
B19: IL-18 variant G3I, E6D, D54A, S55F, N91Y, R104H (ligand)
chain: B1 chain with D3I, G6D, G53K, S55F, S63T, Q104H
B20: IL-18 variant G3I, E6Q, N91M, R104Y (ligand)
chain: B1 chain with D3I, G6Q, G53K, A54D, S63T, Y91M, Q104Y
B21: IL-18 variant G3Q, E6G, D54N, S55H, T63V, N91M, R104T (ligand)
chain: B1 chain with D3Q, G53K, A54N, S55H, S63V, Y91M, Q104T
B22: Comparator 5 on monoFc scaffold (Fc fusion, not shown: small tags and cut ends)
chain: HFGRLHCTTAVIRNINDQVLFVDKRQPVFEDMTDIDQSASEPQTRLIIYAYGDSRARGKAVTLSVKDSKMSTLSCKNKIISFEEMDPPENIDDIQSDLIFFQKRVPGHNKMEFESSLYEGHFLACQKEDDAFKLILKKKDENGDKSVMFTLTNLHQSNGGPSVFLFPPKPKDTLMISRTPEVTCVVVDVSHEDPEVKFNWYVDGVEVHNAKTKPREEQYNSTYRVVSVLTVLHQDWLNGKEYKCKVSNKALPAPIEKTISKAKGQPREPQVYTLPPSREEMTKNQVNLTCLVKGFYPSDIAVEWESNGQPENNYKTTPPVLDSDGSFFLNSTLTVDKSRWQQGNVFSCSVMHEALHNHYTQKSLSLS
B23: mouse IL-18 G3T/L59K on monoFc scaffold (Fc fusion, not shown: small tags and cut ends)
chain: B22 chain with H1N, G3T, C7S, A50M, G52K, R55E, A56V, C75S, C125S
B24: mouse IL-18 G3T/H6K/L59K on monoFc scaffold (Fc fusion, not shown: small tags and cut ends)
chain: B22 chain with H1N, G3T, H6K, C7S, A50M, G52K, R55E, A56V, C75S, C125S

These binders were tested against T1, IL-18 receptor (IL-18Rα and IL-18Rβ) (UniProt Q13478 19-541; O95256 20-599, limits assumed) (assay: cell-based or functional assay).
T1 sequence (looked up) 1: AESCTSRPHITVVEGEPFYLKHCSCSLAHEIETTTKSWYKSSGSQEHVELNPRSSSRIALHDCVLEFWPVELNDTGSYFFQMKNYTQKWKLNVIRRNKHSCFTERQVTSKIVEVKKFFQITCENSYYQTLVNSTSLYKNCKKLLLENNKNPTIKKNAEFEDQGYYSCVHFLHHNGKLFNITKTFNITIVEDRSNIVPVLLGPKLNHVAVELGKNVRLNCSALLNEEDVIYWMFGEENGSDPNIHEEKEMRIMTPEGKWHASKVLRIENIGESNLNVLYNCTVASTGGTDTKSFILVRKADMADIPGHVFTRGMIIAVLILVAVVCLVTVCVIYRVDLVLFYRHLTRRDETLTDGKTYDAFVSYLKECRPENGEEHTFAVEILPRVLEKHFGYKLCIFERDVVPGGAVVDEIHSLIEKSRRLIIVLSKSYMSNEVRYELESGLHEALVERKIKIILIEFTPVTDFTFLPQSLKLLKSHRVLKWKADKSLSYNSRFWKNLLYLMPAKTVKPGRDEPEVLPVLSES
T1 sequence (looked up) 2: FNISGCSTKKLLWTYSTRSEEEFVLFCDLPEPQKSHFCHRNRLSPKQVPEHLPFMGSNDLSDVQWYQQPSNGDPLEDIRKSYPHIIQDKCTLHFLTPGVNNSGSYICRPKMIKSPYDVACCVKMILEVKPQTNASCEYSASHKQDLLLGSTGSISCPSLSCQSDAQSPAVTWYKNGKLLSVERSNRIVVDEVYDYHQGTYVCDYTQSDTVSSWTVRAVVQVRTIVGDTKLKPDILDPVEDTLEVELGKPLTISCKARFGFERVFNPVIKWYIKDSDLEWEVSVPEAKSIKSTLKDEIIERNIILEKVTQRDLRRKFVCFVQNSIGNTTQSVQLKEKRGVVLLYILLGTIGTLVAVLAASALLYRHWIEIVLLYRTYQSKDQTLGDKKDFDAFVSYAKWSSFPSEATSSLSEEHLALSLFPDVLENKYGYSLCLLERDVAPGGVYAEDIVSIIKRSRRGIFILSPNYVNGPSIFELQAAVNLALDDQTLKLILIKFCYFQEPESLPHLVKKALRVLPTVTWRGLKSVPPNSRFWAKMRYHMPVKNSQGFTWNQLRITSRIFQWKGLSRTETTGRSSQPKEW

In order of rising “EC50 (pM) - BP, HEK-blue re-screening” value:
1. B11  0.02 pM
2. B4  0.03 pM
3. B2  0.73 pM
4. B3  1.09 pM
5. B9  1.58 pM
6. B12  2.36 pM
7. B1  2.62 pM
8. B10  2.63 pM
9. B7  3.21 pM
10. B8  5.4 pM
11. B6  8.21 pM
12. B5  9.07 pM

What follows are binders tested against T2, interleukin 18 binding protein (IL-18BP) (UniProt O95998 31-194) (assay: cell-based or functional assay).
T2 sequence (looked up): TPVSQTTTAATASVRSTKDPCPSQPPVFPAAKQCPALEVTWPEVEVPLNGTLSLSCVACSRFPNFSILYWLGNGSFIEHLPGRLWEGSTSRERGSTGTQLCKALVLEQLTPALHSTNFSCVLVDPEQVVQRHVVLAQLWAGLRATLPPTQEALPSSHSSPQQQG

In order of rising “EC50 (pM) + 300 nM BP, HEK-blue re-screening” value:
1. B4  0.37 pM
2. B11  0.51 pM
3. B2  1.18 pM
4. B12  2.54 pM
5. B3  2.58 pM
6. B9  2.99 pM
7. B1  3.11 pM
8. B10  4.69 pM
9. B7  5.34 pM
10. B8  8.23 pM
11. B5  10.1 pM
12. B6  15.8 pM

In order of falling “Ratio (HEK-blue EC50, + 300 nM BP against - BP)” value:
1. B11  25.5
2. B4  12.3
3. B3  2.4
4. B6  1.9
5. B9  1.9
6. B10  1.8
7. B7  1.7
8. B2  1.6
9. B8  1.5
10. B1  1.2
11. B5  1.1
12. B12  1.1

Molecular target: T1, IL-18 receptor (IL-18Rα and IL-18Rβ)
Test: cell-based or functional assay
Remark: another data set of the same source

In order of rising “EC50 (pM) - BP, HEK-blue re-screening” value:
1. B17  0.05 pM
2. B20  0.07 pM
3. B16  0.31 pM
4. B19  0.45 pM
5. B21  0.99 pM
6. B15  1.35 pM
7. B14  3.42 pM
8. B18  4.22 pM
9. B13  9.63 pM

Molecular target: T2, interleukin 18 binding protein (IL-18BP)
Test: cell-based or functional assay
Remark: another data set of the same source

In order of falling “EC50 (pM) + 100 nM BP, HEK-blue re-screening” value:
1. B14  62.8 pM
2. B15  54.7 pM
3. B13  34.7 pM
4. B18  25.7 pM
5. B17  8.61 pM
6. B16  5.23 pM
7. B20  3.77 pM
8. B19  3.41 pM
9. B21  2.66 pM

In order of rising “Ratio (HEK-blue EC50, + 100 nM BP against - BP)” value:
1. B21  2.7
2. B13  3.6
3. B18  6.1
4. B19  7.6
5. B16  16.9
6. B14  18.4
7. B15  40.5
8. B20  53.9
9. B17  172

What follows are binders tested against T3, mouse IL-18 binding protein (mouse, UniProt Q9Z0M9 29-193) (assay: Octet BLI, monoFc scaffold).
T3 construct: also called Mouse IL18BP; Mouse IL-18BP
T3 sequence (looked up): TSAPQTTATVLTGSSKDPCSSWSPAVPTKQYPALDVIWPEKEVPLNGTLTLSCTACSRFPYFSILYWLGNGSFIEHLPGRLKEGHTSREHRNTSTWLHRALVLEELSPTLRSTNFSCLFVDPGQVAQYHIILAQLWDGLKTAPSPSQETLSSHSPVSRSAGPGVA
Procedure: (§1) Octet 96red instrument was used to determine affinities of IL18 proteins to BP or receptors. 5-10 ug/ml analyte proteins were used for loading on Sartorius tips (AHC or SA). […] 120-180 s loading, 200 s association and 800 s dissociation were used for kinetics. 3-7 data points were used to calculate affinities.
(§2) Several mouse variants were next tested for binding affinity to mouse IL-18R alpha and mouse IL-18BP.

B22: no binding.
B23: no binding.
B24: no binding.

What follows are binders tested against T4, mouse IL-18 receptor alpha (mouse, UniProt Q61098 20-326, limits assumed) (assay: Octet BLI, monoFc scaffold).
T4 construct: also called Mouse IL18Ra; mouse IL-18R alpha
T4 sequence (looked up): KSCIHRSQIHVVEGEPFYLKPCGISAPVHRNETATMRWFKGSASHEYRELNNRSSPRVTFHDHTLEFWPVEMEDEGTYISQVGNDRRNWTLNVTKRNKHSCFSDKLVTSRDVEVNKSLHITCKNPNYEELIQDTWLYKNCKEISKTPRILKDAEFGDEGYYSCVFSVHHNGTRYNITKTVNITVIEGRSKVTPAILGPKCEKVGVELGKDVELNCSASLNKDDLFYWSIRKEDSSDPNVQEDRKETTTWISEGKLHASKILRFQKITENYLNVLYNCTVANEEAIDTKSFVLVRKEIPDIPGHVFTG
Procedure: as §1, §2

In order of rising Kd:
1. B22  1.27 nM
2. B23  12.3 nM
3. B24  12.8 nM
